Positions count from the first letter of the chain named. Non-standard residues stand in square brackets, D forms with d. No end group written: not given here. *: point of attachment. Biotin = O=C1N[C@H]2[C@H](CS[C@H]2CCCCC(=O)*)N1; sY = N[C@@H](Cc1ccc(OS(=O)(=O)O)cc1)C(=O)O
T1: Recombinant human PSGL-1(ECD)-hFc1 (R&D Systems, Cat. 3345-PS) (human, UniProt Q14242 42-305)
T1 construct: Bought; Gln42-Val295 counted on AAC50061; also called PSGL-1-Fc; PSGL-1-hFc1 chimera; not shown: human IgG1 Fc, Pro100-Lys330
T1 sequence: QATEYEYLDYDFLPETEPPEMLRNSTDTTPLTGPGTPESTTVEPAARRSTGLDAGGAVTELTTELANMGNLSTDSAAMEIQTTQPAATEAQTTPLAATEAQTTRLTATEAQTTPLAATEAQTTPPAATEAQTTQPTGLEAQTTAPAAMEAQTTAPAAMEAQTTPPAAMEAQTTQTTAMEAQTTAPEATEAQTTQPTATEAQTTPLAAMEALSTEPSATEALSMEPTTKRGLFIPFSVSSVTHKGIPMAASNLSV

T2: Human fibrinogen protein (ThermoFisher, RP-43142) (human, UniProt P02671 20-629; P02675 31-491; P02679 27-453, limits assumed, natural sulfotyrosines)
T2 construct: mature; Native dimer with 3 pairs of non-identical chains; also called gamma-fibrinogen; γ fibrinogen protein
T2 sequence (looked up) 1: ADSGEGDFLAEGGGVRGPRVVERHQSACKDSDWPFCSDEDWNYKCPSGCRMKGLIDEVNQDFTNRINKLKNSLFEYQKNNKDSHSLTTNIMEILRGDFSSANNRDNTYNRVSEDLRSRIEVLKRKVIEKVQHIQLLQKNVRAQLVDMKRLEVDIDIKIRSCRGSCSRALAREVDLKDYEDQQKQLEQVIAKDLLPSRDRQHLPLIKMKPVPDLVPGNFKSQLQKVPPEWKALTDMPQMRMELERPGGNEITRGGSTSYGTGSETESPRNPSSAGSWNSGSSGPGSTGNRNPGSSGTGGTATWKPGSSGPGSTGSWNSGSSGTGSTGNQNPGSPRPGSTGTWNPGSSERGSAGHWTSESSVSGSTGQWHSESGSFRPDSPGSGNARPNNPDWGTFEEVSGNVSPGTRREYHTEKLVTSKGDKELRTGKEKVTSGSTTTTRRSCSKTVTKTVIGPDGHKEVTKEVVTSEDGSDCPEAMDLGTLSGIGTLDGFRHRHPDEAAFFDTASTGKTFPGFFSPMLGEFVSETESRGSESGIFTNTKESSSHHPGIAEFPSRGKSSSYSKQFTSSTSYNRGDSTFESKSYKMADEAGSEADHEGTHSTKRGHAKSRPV
T2 sequence (looked up) 2: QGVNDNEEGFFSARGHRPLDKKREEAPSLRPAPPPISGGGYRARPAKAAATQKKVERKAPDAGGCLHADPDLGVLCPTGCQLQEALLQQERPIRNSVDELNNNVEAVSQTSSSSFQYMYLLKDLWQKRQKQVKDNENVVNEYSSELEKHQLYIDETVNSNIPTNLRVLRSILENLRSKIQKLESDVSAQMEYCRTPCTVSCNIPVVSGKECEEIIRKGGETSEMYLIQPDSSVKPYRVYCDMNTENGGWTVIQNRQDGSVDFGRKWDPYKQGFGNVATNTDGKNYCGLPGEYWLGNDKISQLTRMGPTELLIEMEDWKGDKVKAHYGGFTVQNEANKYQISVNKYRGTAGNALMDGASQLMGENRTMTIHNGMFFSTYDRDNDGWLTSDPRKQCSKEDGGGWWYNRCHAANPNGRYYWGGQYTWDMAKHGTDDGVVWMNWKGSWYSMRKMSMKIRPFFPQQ
T2 sequence (looked up) 3: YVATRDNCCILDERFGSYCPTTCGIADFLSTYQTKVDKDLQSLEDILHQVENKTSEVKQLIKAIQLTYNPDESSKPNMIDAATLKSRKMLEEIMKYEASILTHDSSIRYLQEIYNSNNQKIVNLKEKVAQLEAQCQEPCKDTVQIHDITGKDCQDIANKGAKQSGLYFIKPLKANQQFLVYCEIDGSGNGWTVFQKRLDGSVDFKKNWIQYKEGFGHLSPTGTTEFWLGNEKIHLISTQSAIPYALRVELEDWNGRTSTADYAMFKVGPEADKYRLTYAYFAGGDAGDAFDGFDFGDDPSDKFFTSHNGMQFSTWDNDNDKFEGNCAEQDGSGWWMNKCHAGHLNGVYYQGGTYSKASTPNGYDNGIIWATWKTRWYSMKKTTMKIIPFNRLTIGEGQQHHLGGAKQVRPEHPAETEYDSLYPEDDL

T3: Sulfotyrosine CCR2b biotin peptide (human)
T3 construct: also called CCR2b peptide
T3 peptide: TTFFD[sY]D[sY]GAPSHGGK(Biotin)

T4: Sulfotyr fibrinogen γ peptide (not fully specified; Y8 and Y12 sulfated (SO3); C-terminal biotin)
T4 construct: also called Fibrinogen gamma peptide; human sulfotyrosinylated fibrinogen peptide
T4 peptide: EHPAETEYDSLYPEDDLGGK

T5: SulfoTyr C4 peptide (not fully specified; Y4, Y7 and Y9 sulfated (SO3); C-terminal biotin)
T5 construct: also called C4 alpha chain peptide; human sulfotyrosinylated C4 peptide
T5 peptide: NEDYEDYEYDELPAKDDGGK

B1: 18K07 (antibody, V domains shown)
VH: QIQLVQSGPELKKPGETVKISCEASGYTFTTYGMNWVKQAPGKGLKWMGWINTYSGVPTYADDFQGRFAFSVETSATTAYLQINNLKNEDAATYFCARSDDTYYGFAYWGQGTLVTVSA
VL: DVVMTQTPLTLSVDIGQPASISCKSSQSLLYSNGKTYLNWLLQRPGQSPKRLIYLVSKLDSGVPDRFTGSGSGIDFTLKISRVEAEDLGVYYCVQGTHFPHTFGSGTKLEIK
notes: From mouse immunisation; only variable domains given
B2: 16E17 (antibody, V domains shown)
VH: QIQLVQSGPELKKPGETVKISCKASGYAFTTYGMSWVKQAPGKGLKWMGWINTYSGVPKYADDFKGRFAFSLETSASTAYLHINNLKNEDTATYFCGRHYYGSSYFDYWGQGTTLTVSS
VL: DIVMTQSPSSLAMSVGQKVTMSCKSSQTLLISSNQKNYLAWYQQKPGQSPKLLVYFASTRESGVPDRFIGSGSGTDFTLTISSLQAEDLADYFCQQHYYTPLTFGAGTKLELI
notes: as for B1
B3: 19N05 (antibody, V domains shown)
VH: B2 VH with A28T, K59T, Y60F, H82Q, Y94F, G97A, H99N, S103N, S104H
VL: DVQITQSPSYLAASPGETISINCRASNNINKYLAWYQEKPGKTNKLLIYSGSTLQSGIPSRFSGSGSGTDFTLTISSLEPEDFAMYHCQQHNYYPLTFGAGTKLELK
notes: as for B1
B4: 19L04 (antibody, IgG4, V domains shown)
VH: B2 VH with A28T, K59T, H82Q, N88I, G97A, S104H
VL: DIMMTQSPSSLAMSVGQKVTLRCKSSQSLLNSSNQKNYLAWYQQKPGQSPKLLVYFASTRESGVPVRFIGSGSGTDFTLTISSMQAEDLADYFCQQHYFSPLTFGAGTKLELK
notes: as for B1
B5: 43B6 (antibody, V domains shown)
VH: EVQLQQSGPDLVKPGALVKISCKASGYSFTAYYIHWVKQSHGKSLEWIGRVNPNTGGTSYNPKFKGKAILNVDKSSSTAYMELRSLTSEDSAVYYCARSGSPYYRYDDWGQGTTLTVSS
VL: ENVLTQSPAIMSASPGEKVTMTCRASSTVNSTYLHWFQQKSGASPKLWIYGSSNLASGVPARFSGSGSGTSYSLTISSVEAEDAATYYCQQYSGYPLTFGAGTTLELK
notes: Control anti-PSGL-1 mAb, recombinant; only variable domains given; also called 43B3
B6: 9F9 (antibody, V domains shown)
VH: EVQLVETGGGLVQPKGSLKLSCAASGFTFNTNAMNWVRQAPGKGLEWVARIRSKSNNYATYYADSVKDRFTISRDDTQSMIYLQMNNLKTEDTGMYYCVRGGSYWYFDVWGAGTTVTVSS
VL: DVLMTQTPLSLPVSLGDQASISCRSSQSIVNSNGNTYLEWYLQKPGQSPKLLIYKVSNRFSGVPDRFSGSGSGTDFTLKISRVEAEDLGVYYCFQGSHVPWTFGGGTKLEIK
notes: Control anti-PSGL-1 mAb, recombinant; only variable domains given; also called 9F6
B7: 18F02 (antibody, V domains shown)
VH: QVQLQQPGAELVKPGASVKLSCKASGYTFTSYWMHWVKQRPGQGLEWIGMIHPNSGRTNYNEKFKSKATLTVDKSSSTAYMQLSSLTSEDSAVYYCARSDYWGQGTTLTVSS
VL: DIVMTQAAFSNPVTLGTSASISCRSSKSLLHSDGITYLYWFLQRPGQSPQLLIYRMSNLASGVPDRFSGSGSGTDFTLRISRVEAEDVGVYYCAQMLEFPRTFGGGTKLEIK
notes: as for B1
B8: 5E12 (antibody, V domains shown)
VH: EIQLQQSGAELVRPGASVKLSCTASGFNIKDDYIHWVKQRPEQGLEWIGRIDPANGNTKSAPKFQDKATITADTSSNTAYLHLSSLTSEDTAVYYCSIRFAYWGQGTLVTVSA
VL: DVVMTQTPLSLSVSLGDQASISCRSSQSLVYRNGDTYLHWFLQKPGQSPKLLIYKVSNRFSGVPDRFSGSGSGTDFTLKISRVEAEDLGIYFCSQNTHVPYTFGGGTKLEIK
notes: Mouse hybridoma mAb; only variable domains given
B9: 05E08 (antibody, IgG4, V domains shown)
VH: EVQLVQSGGGVVQPGRSLRLSCAASGFTFSTYAMHWVRQAPGKGLEWVAVISYDGSNKYYADSVKGRFTISRDNSRNTLFLQMNSLRDEDTAVYYCAKRGTMIRGERSLDFWGQGTLVTVSS
VL: AIQMTQSPSFLSASVGDRVTITCRASQGINSWLAWYQQKPGTAPNLLIHAASTLQSGVPSRFSGSRSGTEFTLTISSLQPEDFATYYCQQLQSYPLTFGQGTRLEIK
B10: 06C04 (antibody, IgG4, V domains shown)
VH: EVQLVESGGGLVQPGGSLRLSCAASGFTFSDHYMDWVRQAPGKGLEWVGRSRNKVKSYTTAYAASVEGRITISRDDSKNSLYLEMNSLKTEDTAVYYCVRVRWGGAFDIWGQGTMVTVSS
VL: QPVLTQPPSASGSPGQSVTISCTGTSSDVGGYNYVSWYQQHPGKAPKLMIYEVSKRPSGVPDRFSGSKSGNTASLTVSGLQAEDEADYYCSSYAGSNNLRVFGGGTKLTVL

The binders below were run against T1, Recombinant human PSGL-1(ECD)-hFc1 (R&D …) (assay: blocking ELISA vs VISTA-Fc, pH 6.0).
With B1 the “% max Block” value was 0%. In the case of B2, the “% max Block” value is reported as 0%. In the case of B3, the “% max Block” value is reported as 0%. In the case of B4, the “% max Block” value is reported as 0%. In the case of B5, the “% max Block” value is reported as 100% and the IC50 is reported as 9 nM. With B6 the “% max Block” value was 100% and the IC50 was 8 nM. With B7 the “% max Block” value was 100% and the IC50 was 10 nM. In the case of B8, the “% max Block” value is reported as 0%.

Each binder was assayed against T1, Recombinant human PSGL-1(ECD)-hFc1 (R&D …) (assay: blocking ELISA vs P-selectin-Fc).
Procedure: A typical selectin blocking ELISA assay involved coating high binding half-well plates (Corning, Cat. #3690) with 2.5 ug/mL/25 ul per well of recombinant PSGL-1-Fc protein (R&D Systems, Cat #3345-PS) in PBS, pH 7.4, overnight at 4° C. […] Antibody (test and controls) was serially diluted (25 ul/well) in duplicate in assay buffer (3% BSA in wash buffer) into appropriate wells and the plate incubated for 45 min at 37° C. […] The plate was washed ×3 and HRP-conjugated streptavidin was added in assay buffer [25 ul per well; (Jackson Immunoresearch, Cat. #016-030-084)] and the plate incubated for 45 min at 37° C. […] For each antibody, an IC50 value was determined from sigmoidal fitted titration curves.
With B1 the “% max Block” value was 0%. For B2, the “% max Block” value was 0%. With B3 the “% max Block” value was 0%. With B4 the “% max Block” value was 0%. In the case of B5, the “% max Block” value is reported as 100% and the IC50 is reported as 8 nM. For B6, the “% max Block” value was 100% and the IC50 was 10 nM. For B7, the “% max Block” value was 100% and the IC50 was 6 nM. With B8 the “% max Block” value was 0%.

The binders below were run against T2, Human fibrinogen protein (ThermoFisher, …) (assay: ELISA, 50 nM mAb).
Procedure: (§1) Recombinant PSGL-1-hFc1 chimera protein consisting of PSGL-1's extracellular domain (ECD) served as a positive control. […] Primary antibody was added (25 ul per well) in duplicate at 50 nM in assay buffer (blocking buffer containing 0.05% Tween®20) into test and control (just blocked) wells and the plate incubated for 45 min at 37° C.
B9 was tested, and the “binding normalized to PSGL-1” value was 0.44. B10 was tested, and the “binding normalized to PSGL-1” value was 0.51. B7 was tested, and the “binding normalized to PSGL-1” value was 0.01 and the binding result was “no binding (tested: 50 nM)”. With B8 the “binding normalized to PSGL-1” value was 0.03.

Molecular target: T3, Sulfotyrosine CCR2b biotin peptide
Assay: ELISA, 50 nM mAb
Procedure: as §1
With B9 the “binding normalized to PSGL-1” value was 0.85. For B10, the “binding normalized to PSGL-1” value was 0.23. In the case of B7, the “binding normalized to PSGL-1” value is reported as 0.03. In the case of B8, the “binding normalized to PSGL-1” value is reported as 0.03.

Molecular target: T4, Sulfotyr fibrinogen γ peptide
Assay: ELISA, 50 nM mAb
Procedure: as §1
In the case of B9, the “binding normalized to PSGL-1” value is reported as 1.05. For B10, the “binding normalized to PSGL-1” value was 1.15. In the case of B7, the “binding normalized to PSGL-1” value is reported as 0.21. With B8 the “binding normalized to PSGL-1” value was 0.03.

These binders were tested against T6, Human complement C4 protein (Millipore Sigma, Cat. 204886) (human, UniProt P0C0L4 20-675; P0C0L4 680-1446; P0C0L4 1454-1744, limits assumed, natural sulfotyrosines) (assay: ELISA, 50 nM mAb).
T6 construct: mature
T6 sequence (P0C0L4 20-675 limits assumed, form in doubt, chain 1 of 3): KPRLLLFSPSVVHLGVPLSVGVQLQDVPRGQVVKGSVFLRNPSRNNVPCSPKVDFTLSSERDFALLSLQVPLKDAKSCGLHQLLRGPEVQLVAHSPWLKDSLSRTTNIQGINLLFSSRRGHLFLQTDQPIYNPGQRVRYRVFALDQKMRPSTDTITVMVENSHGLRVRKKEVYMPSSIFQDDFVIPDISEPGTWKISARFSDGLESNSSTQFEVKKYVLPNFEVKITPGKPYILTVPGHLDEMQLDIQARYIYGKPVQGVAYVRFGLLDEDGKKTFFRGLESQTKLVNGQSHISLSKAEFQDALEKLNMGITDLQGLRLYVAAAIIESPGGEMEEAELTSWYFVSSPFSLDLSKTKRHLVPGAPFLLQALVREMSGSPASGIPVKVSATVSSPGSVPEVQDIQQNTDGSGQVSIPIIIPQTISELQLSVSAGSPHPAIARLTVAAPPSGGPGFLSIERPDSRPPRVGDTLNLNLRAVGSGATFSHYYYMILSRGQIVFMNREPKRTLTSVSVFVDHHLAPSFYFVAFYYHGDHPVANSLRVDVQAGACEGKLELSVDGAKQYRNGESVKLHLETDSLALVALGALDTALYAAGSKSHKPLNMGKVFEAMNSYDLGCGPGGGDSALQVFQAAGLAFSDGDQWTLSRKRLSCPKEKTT
T6 sequence (P0C0L4 680-1446 limits assumed, form in doubt, chain 2 of 3): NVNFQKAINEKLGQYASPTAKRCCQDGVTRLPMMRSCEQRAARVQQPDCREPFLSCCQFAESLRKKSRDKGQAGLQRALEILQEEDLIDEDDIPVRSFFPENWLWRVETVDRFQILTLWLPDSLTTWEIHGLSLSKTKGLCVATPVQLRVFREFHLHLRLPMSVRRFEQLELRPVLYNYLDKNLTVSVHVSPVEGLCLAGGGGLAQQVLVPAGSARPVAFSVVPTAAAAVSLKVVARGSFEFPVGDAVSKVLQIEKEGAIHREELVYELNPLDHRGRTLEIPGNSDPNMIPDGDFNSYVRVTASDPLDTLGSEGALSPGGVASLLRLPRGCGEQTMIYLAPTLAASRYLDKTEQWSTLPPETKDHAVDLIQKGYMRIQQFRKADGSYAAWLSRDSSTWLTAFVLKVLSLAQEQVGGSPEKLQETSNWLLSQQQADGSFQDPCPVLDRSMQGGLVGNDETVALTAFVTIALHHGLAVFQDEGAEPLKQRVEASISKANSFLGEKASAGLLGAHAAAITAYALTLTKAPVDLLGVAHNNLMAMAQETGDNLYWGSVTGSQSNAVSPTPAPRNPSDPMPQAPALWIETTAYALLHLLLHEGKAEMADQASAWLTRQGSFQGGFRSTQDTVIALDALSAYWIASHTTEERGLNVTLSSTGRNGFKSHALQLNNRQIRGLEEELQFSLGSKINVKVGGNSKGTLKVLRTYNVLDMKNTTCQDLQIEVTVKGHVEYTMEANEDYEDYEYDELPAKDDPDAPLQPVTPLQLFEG
T6 sequence (P0C0L4 1454-1744 limits assumed, form in doubt, chain 3 of 3): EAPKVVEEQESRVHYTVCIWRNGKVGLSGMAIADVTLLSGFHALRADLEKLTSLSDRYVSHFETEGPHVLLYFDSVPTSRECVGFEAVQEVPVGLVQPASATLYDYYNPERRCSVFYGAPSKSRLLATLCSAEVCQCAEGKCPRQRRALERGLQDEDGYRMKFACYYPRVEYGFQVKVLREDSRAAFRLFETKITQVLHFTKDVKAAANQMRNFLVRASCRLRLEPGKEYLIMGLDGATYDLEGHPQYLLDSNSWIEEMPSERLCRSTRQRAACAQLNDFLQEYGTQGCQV
Procedure: as §1
For B9, the “binding normalized to PSGL-1” value was 1.04. B10 was tested, and the “binding normalized to PSGL-1” value was 1.1. B7 was tested, and the “binding normalized to PSGL-1” value was 0.03. With B8 the “binding normalized to PSGL-1” value was 0.03.

Molecular target: T5, SulfoTyr C4 peptide
Assay: ELISA, 50 nM mAb
Procedure: as §1
With B9 the “binding normalized to PSGL-1” value was 1. B10 was tested, and the “binding normalized to PSGL-1” value was 0.94. B7: no binding (tested: 50 nM). With B8 the “binding normalized to PSGL-1” value was 0.03.
